According to the supplement of paper PMC6757056:
± gives the standard deviation of the averaged measurements.

B1: library; a variant is named by its letters at N, in order (parent)
chain: GCUGUCACCGGUGUAUUACCCUAGUGGUCGACCGGUCUGAUGAGUCUNNNNNNAGACGAAACAGC

Assays:
hypoxanthine [1] = variants of: B1; assay: normalized RNA/DNA level with ligand (relative to sTRSVctl = 100) (log10 (% of sTRSVctl)); ligand: hypoxanthine (xanthine aptamer); higher = less ribozyme self-cleavage, higher mRNA level; conditions: ligand concentration (+) RNA-Seq: 5 mM, HEK293T, reporter: mCherry (pCS4076), ligand present: yes
How it was run: (§1)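 Total RNA, extracted with EDTA 72 h after HEK293T cells were transfected with 4 µg per 6-well well of reporter-linked ribozyme switch library plasmids, was reverse-transcribed, amplified, barcoded and sequenced. Ligand, if used, was added 1 h before transfection. RNA level was derived from RNA reads divided by DNA reads and normalized to a spiked-in non-cleaving sequence or to the top sequences. This was multiplied by 100 and log10-transformed, with the top set of 25 sequences and a ≥100 DNA read minimum.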

hypoxanthine [2] = variants of: B1; assay: normalized RNA/DNA level without ligand (relative to sTRSVctl = 100) (log10 (% of sTRSVctl)); ligand: hypoxanthine (xanthine aptamer); higher = less ribozyme self-cleavage, higher mRNA level; conditions: HEK293T, reporter: mCherry (pCS4076), ligand present: no
How it was run: as §1

| Variant | normalized RNA/DNA level with ligand (log10) (hypoxanthine [1]) | normalized RNA/DNA level without ligand (log10) (hypoxanthine [2]) |
| --- | --- | --- |
| GCUGUCACCGGUGUAUUACCCUAGUGGUCGACCGGUCUGAUGAGUCUAGUCUAAGACGAAACAGC | 1.924 ± 0.0097 | 1.836 ± 0.0084 |
| GCUGUCACCGGUGUAUUACCCUAGUGGUCGACCGGUCUGAUGAGUCUCAUCAUAGACGAAACAGC | 1.921 ± 0.011 | 1.88 ± 0.043 |
| GCUGUCACCGGUGUAUUACCCUAGUGGUCGACCGGUCUGAUGAGUCUCAUCUUAGACGAAACAGC | 2 ± 0.027 | 1.93 ± 0.047 |
| GCUGUCACCGGUGUAUUACCCUAGUGGUCGACCGGUCUGAUGAGUCUGACCACAGACGAAACAGC | 1.94 ± 0.022 | 1.835 ± 0.017 |
| GCUGUCACCGGUGUAUUACCCUAGUGGUCGACCGGUCUGAUGAGUCUAUAAAAAGACGAAACAGC | 1.88 ± 0.031 | 1.8 ± 0.04 |
| GCUGUCACCGGUGUAUUACCCUAGUGGUCGACCGGUCUGAUGAGUCUGAACUGAGACGAAACAGC | 1.87 ± 0.05 | 1.519 ± 0.0031 |
| GCUGUCACCGGUGUAUUACCCUAGUGGUCGACCGGUCUGAUGAGUCUUGGGAUAGACGAAACAGC | 1.938 ± 0.014 | 1.71 ± 0.02 |
| GCUGUCACCGGUGUAUUACCCUAGUGGUCGACCGGUCUGAUGAGUCUUAAUUGAGACGAAACAGC | 1.92 ± 0.051 | 1.74 ± 0.02 |
| GCUGUCACCGGUGUAUUACCCUAGUGGUCGACCGGUCUGAUGAGUCUCAUUGCAGACGAAACAGC | 1.94 ± 0.06 | 1.87 ± 0.053 |
| GCUGUCACCGGUGUAUUACCCUAGUGGUCGACCGGUCUGAUGAGUCUGGCUUAAGACGAAACAGC | 1.967 ± 0.014 | 1.88 ± 0.025 |
| GCUGUCACCGGUGUAUUACCCUAGUGGUCGACCGGUCUGAUGAGUCUGGGCGCAGACGAAACAGC | 1.929 ± 0.013 | 1.7 ± 0.032 |
| GCUGUCACCGGUGUAUUACCCUAGUGGUCGACCGGUCUGAUGAGUCUCAAGCGAGACGAAACAGC | 1.94 ± 0.037 | 1.82 ± 0.03 |
| GCUGUCACCGGUGUAUUACCCUAGUGGUCGACCGGUCUGAUGAGUCUCCCAUGAGACGAAACAGC | 1.933 ± 0.0045 | 1.81 ± 0.048 |
| GCUGUCACCGGUGUAUUACCCUAGUGGUCGACCGGUCUGAUGAGUCUAACCUUAGACGAAACAGC | 1.9 ± 0.054 | 1.895 ± 0.0019 |
| GCUGUCACCGGUGUAUUACCCUAGUGGUCGACCGGUCUGAUGAGUCUCCAUUAAGACGAAACAGC | 1.929 ± 0.017 | 1.84 ± 0.039 |
| GCUGUCACCGGUGUAUUACCCUAGUGGUCGACCGGUCUGAUGAGUCUUGUAAAAGACGAAACAGC | 1.9212 ± 0.0013 | 1.802 ± 0.015 |
| GCUGUCACCGGUGUAUUACCCUAGUGGUCGACCGGUCUGAUGAGUCUACCUUCAGACGAAACAGC | 1.958 ± 0.018 | 1.96 ± 0.03 |
| GCUGUCACCGGUGUAUUACCCUAGUGGUCGACCGGUCUGAUGAGUCUUUUUCGAGACGAAACAGC | 1.923 ± 0.0085 | 1.79 ± 0.053 |
| GCUGUCACCGGUGUAUUACCCUAGUGGUCGACCGGUCUGAUGAGUCUUGAAAUAGACGAAACAGC | 1.907 ± 0.005 | 1.76 ± 0.005 |
| GCUGUCACCGGUGUAUUACCCUAGUGGUCGACCGGUCUGAUGAGUCUAUCUAGAGACGAAACAGC | 1.91 ± 0.033 | 1.61 ± 0.019 |
| GCUGUCACCGGUGUAUUACCCUAGUGGUCGACCGGUCUGAUGAGUCUUGACAAAGACGAAACAGC | 1.918 ± 0.012 | 1.74 ± 0.078 |

| Variant | normalized RNA/DNA level with ligand (log10) (hypoxanthine [1]) | normalized RNA/DNA level without ligand (log10) (hypoxanthine [2]) |
| --- | --- | --- |
| GCUGUCACCGGUGUAUUACCCUAGUGGUCGACCGGUCUGAUGAGUCUUCUAGUAGACGAAACAGC | 1.99 ± 0.051 | 1.68 ± 0.019 |
| GCUGUCACCGGUGUAUUACCCUAGUGGUCGACCGGUCUGAUGAGUCUGGUACAAGACGAAACAGC | 1.94 ± 0.03 | 1.796 ± 0.0062 |
| GCUGUCACCGGUGUAUUACCCUAGUGGUCGACCGGUCUGAUGAGUCUCCGCAAAGACGAAACAGC | 1.95 ± 0.04 | 1.78 ± 0.046 |
| GCUGUCACCGGUGUAUUACCCUAGUGGUCGACCGGUCUGAUGAGUCUGUGCCAAGACGAAACAGC | 1.93 ± 0.021 | 1.81 ± 0.035 |
| GCUGUCACCGGUGUAUUACCCUAGUGGUCGACCGGUCUGAUGAGUCUCGUGUAAGACGAAACAGC | 1.93 ± 0.024 | 1.68 ± 0.042 |
| GCUGUCACCGGUGUAUUACCCUAGUGGUCGACCGGUCUGAUGAGUCUAGGGCCAGACGAAACAGC | 1.98 ± 0.024 | 1.98 ± 0.04 |
| GCUGUCACCGGUGUAUUACCCUAGUGGUCGACCGGUCUGAUGAGUCUAUGGCUAGACGAAACAGC | 1.89 ± 0.026 | 1.86 ± 0.031 |
| GCUGUCACCGGUGUAUUACCCUAGUGGUCGACCGGUCUGAUGAGUCUCGCUAUAGACGAAACAGC | 1.91 ± 0.092 | 1.78 ± 0.028 |
| GCUGUCACCGGUGUAUUACCCUAGUGGUCGACCGGUCUGAUGAGUCUGGUCAAAGACGAAACAGC | 1.94 ± 0.036 | 1.83 ± 0.034 |
| GCUGUCACCGGUGUAUUACCCUAGUGGUCGACCGGUCUGAUGAGUCUUUAUCGAGACGAAACAGC | 1.905 ± 0.01 | 1.78 ± 0.084 |
| GCUGUCACCGGUGUAUUACCCUAGUGGUCGACCGGUCUGAUGAGUCUACUUCCAGACGAAACAGC | 1.928 ± 0.015 | 1.923 ± 0.0089 |
| GCUGUCACCGGUGUAUUACCCUAGUGGUCGACCGGUCUGAUGAGUCUUAUUCUAGACGAAACAGC | 1.96 ± 0.079 | 1.88 ± 0.035 |
| GCUGUCACCGGUGUAUUACCCUAGUGGUCGACCGGUCUGAUGAGUCUCGGUUGAGACGAAACAGC | 1.97 ± 0.072 | 1.88 ± 0.062 |
| GCUGUCACCGGUGUAUUACCCUAGUGGUCGACCGGUCUGAUGAGUCUGGACCAAGACGAAACAGC | 1.916 ± 0.0027 | 1.881 ± 0.0056 |
| GCUGUCACCGGUGUAUUACCCUAGUGGUCGACCGGUCUGAUGAGUCUGUCAUUAGACGAAACAGC | 1.97 ± 0.056 | 1.916 ± 0.015 |
| GCUGUCACCGGUGUAUUACCCUAGUGGUCGACCGGUCUGAUGAGUCUCUGACGAGACGAAACAGC | 1.89 ± 0.057 | 1.86 ± 0.074 |
| GCUGUCACCGGUGUAUUACCCUAGUGGUCGACCGGUCUGAUGAGUCUUCACUAAGACGAAACAGC | 1.92 ± 0.051 | 1.83 ± 0.088 |
| GCUGUCACCGGUGUAUUACCCUAGUGGUCGACCGGUCUGAUGAGUCUAAGCUAAGACGAAACAGC | 1.91 ± 0.021 | 1.68 ± 0.056 |
| GCUGUCACCGGUGUAUUACCCUAGUGGUCGACCGGUCUGAUGAGUCUUUUUGCAGACGAAACAGC | 1.94 ± 0.048 | 1.889 ± 0.0056 |
| GCUGUCACCGGUGUAUUACCCUAGUGGUCGACCGGUCUGAUGAGUCUACGUGCAGACGAAACAGC | 1.81 ± 0.023 | 1.515 ± 0.0062 |
| GCUGUCACCGGUGUAUUACCCUAGUGGUCGACCGGUCUGAUGAGUCUGCAAGUAGACGAAACAGC | 1.93 ± 0.036 | 1.69 ± 0.043 |
